Source: patent publication US20040235098A1, “Sulfotransferase sequence variants” (Mayo Foundation for Medical Education and Research, a …, priority 1998, published 2004)
Residue numbers refer to the chain shown, from its start. Names and notes keep the numbering of the source.

How the values were obtained:
Format in all cases: biochemical, human
[1] = substrate: O=[N+]([O-])c1ccc(O)cc1; assay: Substrate kinetics of recombinant SULT1A2*1; settings: other: recombinant SULT1A2*1; 0.08 to 10.0 μM 4-nitrophenol; mean±SEM of nine
Protocol: (§1) Unless otherwise stated, concentrations of 4-nitrophenol and PAPS were 4 μM and 0.4 μM, respectively. Substrate kinetic experiments were conducted in the presence of a series of concentrations of 4-nitrophenol and PAPS to make it possible to calculate apparent Km values. Enzyme activity was expressed as nmoles of sulfate conjugated product formed per hr of incubation. Protein concentrations were measured by the dye-binding method of Bradford with bovine serum albumin (BSA) as a standard.
(§2) The concentration of 4-nitrophenol used to study each recombinant protein was the same as was used in the thermal stability experiments. All assays for the determination of apparent Km values, thermal stability or DCNP inhibition were performed in triplicate, and all experiments were performed at least three times, i.e., each of the data points shown subsequently represents the average of at least nine separate assays.
(§3) Apparent Km values were calculated by using the method of Wilkion with a computer program written by Cleland. […] Statistical comparisons of data were performed by ANOVA with the StatView program, version 4.5 (Abacus Concepts, Inc., Berkeley, Calif.).
(§4) Expression constructs for each of the common (frequencies≧1%) allozymes for SULT1A1 and SULT1A2 were used to transfect COS-1 cells. Selected biochemical and physical properties of the expressed enzymes were then determined. […]

[2] = substrate: O=[N+]([O-])c1ccc(O)cc1; assay: Substrate kinetics of recombinant SULT1A2*3; settings: other: recombinant SULT1A2*3; 0.08 to 10.0 μM 4-nitrophenol; mean±SEM of nine
Protocol: as §1, §2, §3, §4

[3] = substrate: O=[N+]([O-])c1ccc(O)cc1; assay: Substrate kinetics of recombinant SULT1A2*2; settings: other: recombinant SULT1A2*2; 1.0 to 1000 μM 4-nitrophenol; mean±SEM of nine
Protocol: as §1, §2, §3, §4

[4] = substrate: O=[N+]([O-])c1ccc(O)cc1; assay: Substrate kinetics of recombinant SULT1A1*3; settings: other: recombinant SULT1A1*3; 0.02 to 5.0 μM 4-nitrophenol; mean±SEM of nine
Protocol: as §1, §2, §3, §4

[5] = substrate: O=[N+]([O-])c1ccc(O)cc1; assay: Substrate kinetics of recombinant SULT1A1*1; settings: other: recombinant SULT1A1*1; 0.02 to 5.0 μM 4-nitrophenol; mean±SEM of nine
Protocol: as §1, §2, §3, §4

[6] = substrate: O=[N+]([O-])c1ccc(O)cc1; assay: Substrate kinetics of recombinant SULT1A3; settings: other: recombinant SULT1A3; 3.9 to 3000 μM 4-nitrophenol; mean±SEM of nine

B1: SULT1A2*1 (Homo sapiens) (protein)
chain: MELIQDISRPPLEYVKGVPLIKYFAEALGPLQSFQARPDDLLISTYPKSGTTWVSQILDMIYQGGDLEKCHRAPIFMRVPFLEFKVPGIPSGMETLKNTPAPRLLKTHLPLALLPQTLLDQKVKVVYVARNAKDVAVSYYHFYHMAKVYPHPGTWESFLEKFMAGEVSYGSWYQHVQEWWELSRTHPVLYLFYEDMKENPKREIQKILEFVGRSLPEETVDLMVEHTSFKEMKKNPMTNYTTVRREFMDHSISPFMRKGMAGDWKTTFTVAQNERFDADYAKKMAGCSLSFRSEL
notes: made in house; host or cells: COS-1 cells, pCR3.1 vector, unpurified cytosol
- Km [1]: 8.70 ± 1.10 µM

B2: SULT1A2*3 (Homo sapiens; P19L) (protein)
chain: B1 chain with P19L
notes: as for B1
- Km [2]: 5.65 ± 1.14 µM

B3: SULT1A2*2 (Homo sapiens; I7T/N235T) (protein)
chain: B1 chain with I7T, N235T
notes: as for B1
- Km [3]: 373 ± 33 µM

B4: SULT1A1*3 (Homo sapiens) (protein)
chain: MELIQDTSRPPLEYVKGVPLIKYFAEALGPLQSFQARPDDLLISTYPKSGTTWVSQILDMIYQGGDLEKCHRAPIFMRVPFLEFKAPGIPSGMETLKDTPAPRLLKTHLPLALLPQTLLDQKVKVVYVARNAKDVAVSYYHFYHMAKVHPEPGTWDSFLEKFMVGEVSYGSWYQHVQEWWELSRTHPVLYLFYEDMKENPKREIQKILEFVGRSLPEETVDFVVQHTSFKEMKKNPMTNYTTVPQEFMDHSISPFMRKGMAGDWKTTFTVAQNERFDADYAEKMAGCSLSFRSEL
notes: as for B1
- Km [4]: 0.31 ± 0.01 µM

B5: SULT1A1*1 (Homo sapiens) (protein)
chain: B4 chain
notes: as for B1
- Km [5]: 0.88 ± 0.07 µM

B6: SULT1A3 (Homo sapiens) (protein)
chain: MELIQDTSRPPLEYVKGVPLIKYFAEALGPLQSFQARPDDLLINTYPKSGTTWVSQILDMIYQGGDLEKCNRAPIYVRVPFLEVNDPGEPSGLETLKDTPPPRLIKSHLPLALLPQTLLDQKVKVVYVARNPKDVAVSYYHFHRMEKAHPEPGTWDSFLEKFMAGEVSYGSWYQHVQEWWELSRTHPVLYLFYEDMKENPKREIQKILEFVGRSLPEETMDFMVQHTSFKEMKKNPMTNYTTVPQELMDHSISPFMRKGMAGDWKTTFTVAQNERFDADYAEKMAGCSLSFRSEL
notes: as for B1
- Km [6]: 4960 ± 810 µM
